# Measurements from patent publication US20260027179A1 (UNIVERSITY OF BRITISH COLUMBIA, published 2026).
# B1: Tat-βsyn-degron peptide (peptide)
# peptide: YGRKKRRQRRRRTKSGVYLVGRRRG
# notes: Chemically synthesized by GL Biochem; also called α-synuclein targeting peptide
# Target: T1, Purified recombinant human α-synuclein (N-terminal histidine tagged, Sigma, S7820-500UG) (human, UniProt P37840 1-140)
# T1 construct: also called immobilized α-synuclein; not shown: N-terminal histidine tag
# Assay: Biacore 3000 SPR, α-synuclein immobilized on CM5 chip, peptide 0.20-12.50 µM injected
binder,measurement,value
B1,binding result,binds
